From PMC4041426, “Structural basis for binding the TREX2 complex to nuclear pores, GAL1 localisation and mRNA export” (Nucleic Acids Research, 2014) come the findings set out here.

T1: Kap95 (yeast, UniProt Q06142 1-861)
T1 construct: Kap95 (protein import karyopherin), yeast; also called karyopherin Kap95; yeast Kap95
T1 sequence (looked up): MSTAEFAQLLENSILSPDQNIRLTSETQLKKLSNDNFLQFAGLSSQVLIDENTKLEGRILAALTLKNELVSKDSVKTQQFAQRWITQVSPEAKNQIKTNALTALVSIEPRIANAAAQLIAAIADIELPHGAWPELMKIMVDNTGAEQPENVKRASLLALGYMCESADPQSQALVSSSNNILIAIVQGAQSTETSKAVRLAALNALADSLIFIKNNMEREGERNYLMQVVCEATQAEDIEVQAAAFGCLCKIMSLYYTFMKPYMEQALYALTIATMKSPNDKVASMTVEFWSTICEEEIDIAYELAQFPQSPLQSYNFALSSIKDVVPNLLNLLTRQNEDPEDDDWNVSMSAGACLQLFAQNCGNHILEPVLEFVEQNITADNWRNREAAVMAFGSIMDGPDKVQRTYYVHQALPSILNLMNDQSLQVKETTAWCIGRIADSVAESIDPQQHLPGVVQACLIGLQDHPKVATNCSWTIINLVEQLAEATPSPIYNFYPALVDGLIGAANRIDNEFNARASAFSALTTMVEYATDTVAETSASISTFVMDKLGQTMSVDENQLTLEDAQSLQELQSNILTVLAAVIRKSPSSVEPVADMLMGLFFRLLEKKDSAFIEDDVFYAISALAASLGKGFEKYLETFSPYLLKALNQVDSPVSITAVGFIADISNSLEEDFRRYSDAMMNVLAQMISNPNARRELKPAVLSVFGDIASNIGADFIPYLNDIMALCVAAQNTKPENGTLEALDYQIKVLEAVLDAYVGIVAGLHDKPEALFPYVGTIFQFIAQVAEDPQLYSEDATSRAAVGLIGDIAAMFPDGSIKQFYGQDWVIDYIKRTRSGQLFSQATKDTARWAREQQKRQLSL

T2: Sac3^753–805:Sus1B:Cdc31 complex (S. cerevisiae, UniProt P46674 753-805; Q6WNK7 1-96; P06704 1-161)
T2 construct: Sac3, S. cerevisiae, residues 753–805 (BC); Sus1, S. cerevisiae (the Sus1B chain); Cdc31, S. cerevisiae; also called BC sub-complex; source: E. coli BL21 (DE3) CodonPlus RIL; cells with co-expressed Sac3:Cdc31 mixed with cells with Sus1; copies: 1 + 1 + 1
T2 sequence 1: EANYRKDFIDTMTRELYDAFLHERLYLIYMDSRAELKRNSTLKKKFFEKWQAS
T2 sequence 2: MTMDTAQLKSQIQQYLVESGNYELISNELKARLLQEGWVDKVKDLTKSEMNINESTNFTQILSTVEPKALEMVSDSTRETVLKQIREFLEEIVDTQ
T2 sequence 3: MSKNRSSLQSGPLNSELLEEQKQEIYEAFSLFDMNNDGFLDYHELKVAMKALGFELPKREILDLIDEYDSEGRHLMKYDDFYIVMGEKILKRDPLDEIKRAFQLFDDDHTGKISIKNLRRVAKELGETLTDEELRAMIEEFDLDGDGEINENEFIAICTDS

T3: Sus1 (S. cerevisiae, UniProt Q6WNK7 1-96)
T3 construct: Sus1, S. cerevisiae; also called Sus1A; Sus1B; source: E. coli BL21 (DE3) CodonPlus RIL; in clarified lysate (assembly pull-down), purified within Sac3 complexes (crystals)
T3 sequence: T2 sequence 2

T4: Cdc31 (S. cerevisiae, UniProt P06704 1-161)
T4 construct: Cdc31, S. cerevisiae; source: E. coli BL21 (DE3) CodonPlus RIL, co-expressed with Sac3 fragments; in clarified lysate (assembly pull-down), purified within Sac3 complexes (crystals)
T4 sequence: T2 sequence 3

B1: GST-Nup1^371–500 (domain or fragment, S. cerevisiae, UniProt P20676 371-500, looked up)
chain: DKSTKTAEAPTLSFNFSQKANKTKAVDNTVPSTTLFNFGGKSDTVTSASQPFKFGKTSEKSENHTESDAPPKSTAPIFSFGKQEENGDEGDDENEPKRKRRLPVSEDTNTKPLFDFGKTGDQKETKKGES
notes: source: E. coli BL21 (DE3) CodonPlus RIL; immobilised on Glutathione Sepharose 4B from clarified lysate; not shown: GST, N-terminal, kept
B2: Nup1^316–340 (domain or fragment, S. cerevisiae, UniProt P20676 316-340, looked up)
chain: LKKNIEPKKDKESIVLPTVGFDFIK
notes: Nup1, S. cerevisiae, residues 316–340; Residues 330–340 were built in the model; also called Nup1 fragment; source: E. coli BL21 (DE3) CodonPlus RIL, purified (Glutathione Sepharose, TEV release, Superdex75); not shown: GST, N-terminal, cleaved
B3: Sac3^757–787 (domain or fragment, S. cerevisiae, UniProt P46674 757-787, looked up)
chain: RKDFIDTMTRELYDAFLHERLYLIYMDSRAE
notes: source: E. coli BL21 (DE3) CodonPlus RIL, purified in complex with Sus1B
B4: Sac3^757–787:Sus1B (complex, S. cerevisiae)
chain 1: B3 chain
chain 2: T2 sequence 2
notes: Sus1, S. cerevisiae (the Sus1B chain); also called B sub-complex; Sac3:Sus1B; copies: 1 + 1
B5: Sac3^753–805 (domain or fragment, S. cerevisiae, UniProt P46674 753-805, looked up)
chain: T2 sequence 1
notes: Sac3, S. cerevisiae, residues 753–805 (BC); also called BC fragment; source: E. coli BL21 (DE3) CodonPlus RIL, purified in complex with Sus1B and Cdc31
B6: Nup1^322–355 (domain or fragment, S. cerevisiae, UniProt P20676 322-355, looked up)
chain: PKKDKESIVLPTVGFDFIKDNETPSKKTSPKATS
notes: Residues 326–340 were built in the model; also called Nup1 fragment; source: E. coli BL21 (DE3) CodonPlus RIL, purified (Glutathione Sepharose, TEV release, Superdex75); not shown: GST, N-terminal, cleaved
B7: GST-Nup1^191–385 (domain or fragment, S. cerevisiae, UniProt P20676 191-385, looked up)
chain: KNRSNRKRFHSQSKGTVWSANFEYDLSEYDAIQKKDNKDKEGNAGGDQKTSENRNNIKSSISNGNLATGPNLTSEIEDLRADINSNRLSNPQKNLLLKGPASTVAKTAPIQESFVPNSERSGTPTLKKNIEPKKDKESIVLPTVGFDFIKDNETPSKKTSPKATSSAGAVFKSSVEMGKTDKSTKTAEAPTLSFN
notes: as for B1

Conditions in all cases: both partners purified
The target in assay [1] is T1, Kap95. Briefly: pull-down; GST-Nup fusion (or GST) immobilised on Glutathione Sepharose 4B from clarified bacterial lysate and washed with PBS-DTT; purified Sac3^CID complex, sub-complex, mutant variant or Kap95 added at 15.4 μM; 4°C, 1 h; SDS-PAGE and Coomassie staining.
Assay [2] deals with T2, Sac3^753–805:Sus1B:Cdc31 complex. Briefly: crystal structure; Nup1^316–340 mixed 7:1 with Sac3^753–805:Sus1B:Cdc31 (14.6 mg/ml); 16% PEG600, 2% PEG 1K, 10% glycerol, 100 mM MES pH 6.0; P2_(1), 2.6 Å.
Assay [3] addresses T3, Sus1. As to the kind of experiment: crystal structure; Nup1^322–355 mixed 6:1 with Sac3^757–787:Sus1B (15 mg/ml); 2.2–2.35 M ammonium sulphate, 100 mM Na citrate pH 5.6; P3_(2)21, 3.0 Å.
Assay [4] deals with B7. Briefly: pull-down; GST-Nup fusion (or GST) immobilised on Glutathione Sepharose 4B from clarified bacterial lysate and washed with PBS-DTT; purified Sac3^CID complex, sub-complex, mutant variant or Kap95 added at 15.4 μM; 4°C, 1 h; SDS-PAGE and Coomassie staining.
Assay [5] addresses T3, Sus1. As to the kind of experiment: crystal structure; Nup1^316–340 mixed 7:1 with Sac3^753–805:Sus1B:Cdc31 (14.6 mg/ml); 16% PEG600, 2% PEG 1K, 10% glycerol, 100 mM MES pH 6.0; P2_(1), 2.6 Å.
Assay [6] concerns the target T4, Cdc31. The assay is described as above.
Assay [7] deals with B3. As to the kind of experiment: crystal structure; Nup1^322–355 mixed 6:1 with Sac3^757–787:Sus1B (15 mg/ml); 2.2–2.35 M ammonium sulphate, 100 mM Na citrate pH 5.6; P3_(2)21, 3.0 Å.
Assay [8] deals with B4. The assay is described as above.
Assay [9] deals with T2, Sac3^753–805:Sus1B:Cdc31 complex. As to the kind of experiment: pull-down; GST-Nup fusion (or GST) immobilised on Glutathione Sepharose 4B from clarified bacterial lysate and washed with PBS-DTT; purified Sac3^CID complex, sub-complex, mutant variant or Kap95 added at 15.4 μM; 4°C, 1 h; SDS-PAGE and Coomassie staining.

For the molecule B1, the binding result in assay [1] is “binds”.
For the molecule B2, in assay [2], the binding result was “binds”.
For the molecule B3, the binding result in assay [3] is given as “binds”.
Turning to B4, the binding result in assay [4] is on record as “binds”.
B5: the binding result in assay [5] and in assay [6] was “binds” throughout.
In the case of B6, the binding result in assay [7], in assay [3] and in assay [8] was “binds” throughout.
Turning to B7, the binding result in [9] is “binds”.
